Laboratory results: paper PMC8626509
Where “and” joins values, the source holds several entries; their conditions need not be identical. Identical values can stand only once.

Experiments:
Glu90 = Glu90 (UniProt position 91, AIRNDEELNKL); test: NMR; settings: 303 K; 200 mM (adjusted with NaCl); 20 mM sodium acetate (pH 4.4-5.1), 20 mM MES (pH 5.4-6.5), 20 mM sodium phosphate (pH 6.8-7.9), 20 mM CHES (pH 9.1); folded free H2A-H2B heterodimer
Glu91 = Glu91 (UniProt position 92, IRNDEELNKLL); test: NMR; settings: 303 K, 200 mM (adjusted with NaCl)
Glu55 = Glu55 (UniProt position 56, LAAVMEYLAAE); test: NMR; settings: 303 K, 200 mM (adjusted with NaCl)
Glu60 = Glu60 (UniProt position 61, EYLAAEVLELA); test: NMR; settings: 303 K; 200 mM (adjusted with NaCl); 20 mM sodium acetate (pH 4.4-5.1), 20 mM MES (pH 5.4-6.5), 20 mM sodium phosphate (pH 6.8-7.9), 20 mM CHES (pH 9.1); folded free H2A-H2B heterodimer
Asp89 = Asp89 (UniProt position 90, LAIRNDEELNK); test: NMR; settings: 303 K; 200 mM (adjusted with NaCl); 20 mM acetate pH 4.5, 5.1; 20 mM MES pH 5.6, 6.0, 6.5; 20 mM phosphate pH 6.8, 7.5, 7.9; 20 mM CHES pH 9.1; folded free H2A-H2B heterodimer (150 uM)
Glu63 = Glu63 (UniProt position 64, AAEVLELAGNA); test: NMR; settings: 303 K; 200 mM (adjusted with NaCl); 20 mM sodium acetate (pH 4.4-5.1), 20 mM MES (pH 5.4-6.5), 20 mM sodium phosphate (pH 6.8-7.9), 20 mM CHES (pH 9.1); folded free H2A-H2B heterodimer
His79 = His79 (UniProt position 80, ASRLAHYNKRS); test: NMR; settings: 303 K; 200 mM (adjusted with NaCl); 20 mM acetate pH 4.4, 5.0; 20 mM MES pH 5.4, 5.8, 6.2; 20 mM phosphate pH 6.8, 7.1, 7.5; folded free H2A-H2B heterodimer (150 uM)
His106 = His106 (UniProt position 107, GELAKHAVSEG); test: NMR; settings: 303 K; 200 mM (adjusted with NaCl); 20 mM acetate pH 4.4, 5.0; 20 mM MES pH 5.4, 5.8, 6.2; 20 mM phosphate pH 6.8, 7.1, 7.5; folded free H2A-H2B heterodimer (150 uM)
[1] = 20 mM sodium acetate (pH 4.4-5.1), 20 mM MES (pH 5.4-6.5), 20 mM sodium phosphate (pH 6.8-7.9), 20 mM CHES (pH 9.1), folded free H2A-H2B heterodimer

Substance	pKa (Glu90)	pKa (Glu91; 20 mM acetate pH 4.4, 5.0, 20 mM MES pH 5.4, 5.8, 6.2, 20 mM phosphate pH 6.8, 7.1, 7.5, folded free H2A-H2B heterodimer (150 uM))	pKa (Glu91; [1])	pKa (Glu55; 20 mM acetate pH 4.5, 5.1, 20 mM MES pH 5.6, 6.0, 6.5, 20 mM phosphate pH 6.8, 7.5, 7.9, 20 mM CHES pH 9.1, folded free H2A-H2B heterodimer (150 uM))	pKa (Glu55; [1])	pKa (Glu60)	pKa (Asp89)	pKa (Glu63)	pKa (His46)	pKa (His79)	pKa (His106)
Histone H2A (in the free H2A-H2B heterodimer) (Drosophila melanogaster)	< 5	4.36 ± 0.06 [3.89–4.79]	< 5	4.32 ± 0.08 [4.08–4.78]	< 5	< 5	5.51 ± 0.11 [4.37–6.07] and 5.02 ± 0.28 [4.61–5.61] and 5.3	< 5	–	–	–
Histone H2B (in the free H2A-H2B heterodimer) (Drosophila melanogaster)	–	–	–	–	–	–	–	–	5.86 ± 0.03 [5.66–6.06] and 5.64 ± 0.02 [5.54–5.74] and 5.75 ± 0.03 [5.52–5.92]	6.7	6.52 ± 0.05 [6.23–6.93]
